Measured values taken from patent US11479580B2, “Polypeptide expressed in the stratum corneum and use thereof” (CENTRE NATIONAL DE LA RECHERCHE SCIENTIFIQUE—CNRS, priority 2010, dated 2022).

B1: LCE6A-His: recombinant LCE6A possessing a C-terminal histidine tag (protein, UniProt A0A183 1-80, looked up)
Late cornified envelope …: MSQQKQQSWKPPNVPKCSPPQRSNPCLAPYSTPCGAPHSEGCHSSSQRPEVQKPRRARQKLRCLSRGTTYHCKEEECEGD
modifications: His tag
B2: LCE6A: polypeptide of 80 amino acids of the Late Cornified Envelope family, expressed in the epidermis (protein, listed as Homo sapiens)
chain: MSQQKQQSWKPPNVPKCSPPQRSNPCLAPYSTPCGAPHSEGCHSSSQRPEVQKPRRARQKLRCLSRGTTYHCKEEECEGD

Key:
transglutaminase 2 = target: T1, transglutaminase 2 (UniProt P08587); test: In-vitro transglutaminase 2 binding assay (TGM2); type: biochemical, guinea pig
T1 construct: transglutaminase purified from guinea pig liver; purchased Sigma T5398; host or cells: guinea pig liver
T1 sequence (P08587 1-690): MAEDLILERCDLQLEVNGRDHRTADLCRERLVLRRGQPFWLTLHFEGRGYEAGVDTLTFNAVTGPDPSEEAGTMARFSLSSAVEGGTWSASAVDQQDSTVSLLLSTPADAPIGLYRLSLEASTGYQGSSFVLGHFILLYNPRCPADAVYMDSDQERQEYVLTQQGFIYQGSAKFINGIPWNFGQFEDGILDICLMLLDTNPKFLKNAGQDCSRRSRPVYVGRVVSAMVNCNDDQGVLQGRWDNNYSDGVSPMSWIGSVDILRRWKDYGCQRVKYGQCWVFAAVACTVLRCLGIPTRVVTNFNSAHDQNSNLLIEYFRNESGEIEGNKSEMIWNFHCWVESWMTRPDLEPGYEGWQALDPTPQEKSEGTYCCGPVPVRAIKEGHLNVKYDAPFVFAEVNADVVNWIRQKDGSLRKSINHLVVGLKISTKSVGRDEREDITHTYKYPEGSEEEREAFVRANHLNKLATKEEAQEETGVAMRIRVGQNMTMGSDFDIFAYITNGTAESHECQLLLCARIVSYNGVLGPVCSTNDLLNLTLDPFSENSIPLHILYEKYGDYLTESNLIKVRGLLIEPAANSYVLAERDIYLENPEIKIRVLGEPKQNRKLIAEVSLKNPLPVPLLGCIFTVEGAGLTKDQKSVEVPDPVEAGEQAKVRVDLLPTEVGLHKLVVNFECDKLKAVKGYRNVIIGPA
Method: A binding assay of LCE6A by transglutaminase 2 (transglutaminase purified from guinea pig liver, Sigma T5398) was performed in vitro.
(§1) In a first experiment, the applicant tested the capacity of TGM2 to form bridges between LCE-His and a molecule bearing an amine bond, monodansyl cadaverine (MDC). For this, TGM2 (10 ng/μL) was incubated in the presence of 0.35 μg of LCE6A-His in solution in a buffer 50 mM Tris, 100 mM DTT, pH 7.4, with addition of 10 mM CaCl2 and 500 μM MDC (Fluka). After incubation for 2 h or 18 h at 37° C., the reaction is stopped by adding EDTA to final 25 mM. The negative control corresponds to the same experiment performed in the absence of CaCl2 and in the presence of 100 mM of ETDA after incubation for 18 h. The reaction product is separated by SDS-PAGE 15%, then visualized by illumination with UV.
In a second experiment, the applicant also tested the capacity of TGM2 to form bridges of LCE6A with itself. For this, TGM2 (10 ng/μL) was incubated in the presence of 0.35 μg of LCE6A-His in a buffer 50 mM Tris, 100 mM DTT, pH 7.4, with addition of 10 mM CaCl2. After incubation for 2 h or 18 h at 37° C., the reaction is stopped by adding EDTA to final 25 mM. The negative control corresponds to the same experiment performed in the absence of CaCl2 and in the presence of 100 mM of ETDA after incubation for 18 h. The reaction product is separated by SDS-PAGE 15% and transferred onto a nitrocellulose membrane. The intermolecular bonds are visualized by Western Blot as described above with an anti-His antibody (mouse monoclonal IgG1 “Tetra-His antibody”, Qiagen).

transglutaminase 3 = target: T2, transglutaminase 3 (Homo sapiens, UniProt Q08188); test: In-vitro transglutaminase 3 binding assay (TGM3); type: biochemical
T2 construct: purchased R&D Systems
T2 sequence (Q08188 1-693): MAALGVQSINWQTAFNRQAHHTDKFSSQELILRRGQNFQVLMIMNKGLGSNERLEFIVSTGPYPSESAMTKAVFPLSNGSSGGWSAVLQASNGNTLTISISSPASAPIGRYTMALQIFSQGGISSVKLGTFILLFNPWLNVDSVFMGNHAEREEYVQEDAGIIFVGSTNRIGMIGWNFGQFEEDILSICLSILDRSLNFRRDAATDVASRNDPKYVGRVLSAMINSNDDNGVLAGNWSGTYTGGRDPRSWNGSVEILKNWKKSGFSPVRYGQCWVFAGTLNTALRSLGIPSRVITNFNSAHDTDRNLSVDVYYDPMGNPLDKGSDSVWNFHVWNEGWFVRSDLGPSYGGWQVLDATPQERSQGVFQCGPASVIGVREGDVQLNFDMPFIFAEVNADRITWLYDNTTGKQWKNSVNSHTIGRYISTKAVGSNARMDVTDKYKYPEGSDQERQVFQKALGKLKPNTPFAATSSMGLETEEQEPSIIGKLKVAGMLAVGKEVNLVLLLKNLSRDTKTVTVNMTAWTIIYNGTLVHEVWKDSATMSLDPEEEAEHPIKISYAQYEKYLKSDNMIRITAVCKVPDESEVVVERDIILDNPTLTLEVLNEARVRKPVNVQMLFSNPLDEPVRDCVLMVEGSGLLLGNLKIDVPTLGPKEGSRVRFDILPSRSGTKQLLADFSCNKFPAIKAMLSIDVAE
Method: A binding assay of LCE6A by transglutaminase 3 (human recombinant transglutaminase 3, R&D Systems) was performed in vitro. These assays are carried out according to the same experimental protocol as that described in example 4 paragraph 2 with transglutaminase 2.
as §1, with “TGM3” for “TGM2”, “and” for “and a molecule bearing an amine bond,”
In a second experiment, the applicant tested the capacity of TGM3 to form bridges of LCE6A with itself. For this, TGM3 (10 ng/μL) was incubated in the presence of 0.35 μg of LCE6A-His in a buffer 50 mM Tris, 100 mM DTT, pH 7.4, with addition of 10 mM CaCl2. After incubation for 2 h or 18 h at 37° C., the reaction is stopped by adding EDTA to final 25 mM. The negative control corresponds to the same experiment performed in the absence of CaCl2 and in the presence of 100 mM of ETDA after incubation for 18 h. The reaction product is separated by SDS-PAGE 15% and transferred onto a nitrocellulose membrane. The intermolecular bonds are visualized by Western Blot as described above with an anti-His antibody (mouse monoclonal IgG1 “Tetra-His antibody”, Qiagen).

[1] = 100 mM EDTA, absence of calcium, 18 h
[2] = absence of calcium, 100 mM EDTA

Row | Molecule | capacity of TGM2 to form bridges between LCE-His and MDC, fluorescent bands, negative control (transglutaminase 2; [1]) | capacity of TGM2 to form bridges between LCE-His and monodansyl cadaverine (MDC), fluorescent bands after SDS-PAGE under UV (transglutaminase 2; TGM2 10 ng/μL, 10 mM CaCl2, 500 μM MDC, starting from 2 h of incubation at 37° C.) | capacity of TGM2 to form bridges of LCE6A with itself, Western Blot with anti-His antibody (transglutaminase 2; TGM2 10 ng/μL, 10 mM CaCl2, 2 h or 18 h at 37° C.) | capacity of TGM2 to form bridges of LCE6A with itself, Western Blot, negative control (transglutaminase 2; [2]) | capacity of TGM3 to form bridges between LCE-His and MDC, fluorescent bands, negative control (transglutaminase 3; [1]) | capacity of TGM3 to form bridges between LCE-His and monodansyl cadaverine (MDC), fluorescent bands after SDS-PAGE under UV (transglutaminase 3; TGM3 10 ng/μL, 10 mM CaCl2, 500 μM MDC, starting from 2 h of incubation at 37° C.) | capacity of TGM3 to form bridges of LCE6A with itself, Western Blot with anti-His antibody (transglutaminase 3; TGM3 10 ng/μL, 10 mM CaCl2, 2 h or 18 h at 37° C.) | capacity of TGM3 to form bridges of LCE6A with itself, Western Blot, negative control (transglutaminase 3; [2]) | substrate of transglutaminase 2 (conclusion) (transglutaminase 2) | substrate of transglutaminase 3 (conclusion) (transglutaminase 3)
1 | B1 | No fluorescent band, apart from that corresponding to the free MDC, is detected | several fluorescent bands were detected | several bands of higher molecular weight migrating to a size equivalent to dimers or multimers of LCE6A-His | Only the band corresponding to monomeric LCE6A-His is detected | No fluorescent band, apart from that corresponding to the free MDC, is detected | several fluorescent bands were detected | several bands of higher molecular weight migrating to a size equivalent to dimers or multimers of LCE6A-His | Only the band corresponding to monomeric LCE6A-His is detected |  | 
2 | B2 |  |  |  |  |  |  |  |  | substrate of transglutaminase 2 | substrate of transglutaminase 3
